According to the supplement of paper PMC7125110:
± gives the standard error. For some assays here: Fewer inactive variants are shown than the library holds.

B1: glmS ribozyme (parent)
chain: AUAAAAGCGCCAGAACUACAGAAAUGUAGUUGACGAGGAGGAGGUUUAUCGAAUUUUCGGCGGAUGCCUCCAAA

How the values were obtained:
Details in all cases: with glucosamine-6-phosphate
glucosamine-6-phosphate [1] = variants of: B1; assay: kcat; higher = faster cleavage; RNA array
Method in brief: (§1)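 Tiles of sequenced MiSeq chips were imaged over ~14 h at 37 °C. On them, barcoded ribozyme variants had been transcribed in situ by E. coli RNA polymerase and were tracked via a hybridised Cy3 probe while glucosamine-6-phosphate (40 μM to 10 mM) in HEPES/KCl/Mg(OAc)2 buffer flowed in. Per-tile medians, normalised to baseline and to non-cleaving reference variants, were fit to one- or two-exponential decays for kobs, and weighted Michaelis–Menten fits gave kcat and KM.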

glucosamine-6-phosphate [2] = variants of: B1; assay: KM; higher = weaker cofactor use; RNA array
Method in brief: as §1

glucosamine-6-phosphate [3] = variants of: B1; assay: self-cleavage kobs at 160 uM GlcN6P; higher = faster cleavage; RNA array
Method in brief: as §1

glucosamine-6-phosphate [4] = variants of: B1; assay: self-cleavage kobs at 640 uM GlcN6P; higher = faster cleavage; RNA array
Method in brief: as §1

glucosamine-6-phosphate [5] = variants of: B1; assay: self-cleavage kobs at 2500 uM GlcN6P; higher = faster cleavage; RNA array
Method in brief: as §1

glucosamine-6-phosphate [6] = variants of: B1; assay: self-cleavage kobs at 10000 uM GlcN6P; higher = faster cleavage; RNA array
Method in brief: as §1

glucosamine-6-phosphate [7] = variants of: B1; assay: self-cleavage kobs at 40 uM GlcN6P; higher = faster cleavage; RNA array
Method in brief: as §1

| Variant | kcat (glucosamine-6-phosphate [1]) [s⁻¹] | KM (glucosamine-6-phosphate [2]) [µM] | self-cleavage kobs at 160 uM GlcN6P (glucosamine-6-phosphate [3]) [s⁻¹] | self-cleavage kobs at 640 uM GlcN6P (glucosamine-6-phosphate [4]) [s⁻¹] | self-cleavage kobs at 2500 uM GlcN6P (glucosamine-6-phosphate [5]) [s⁻¹] | self-cleavage kobs at 10000 uM GlcN6P (glucosamine-6-phosphate [6]) [s⁻¹] | self-cleavage kobs at 40 uM GlcN6P (glucosamine-6-phosphate [7]) [s⁻¹] |
| --- | --- | --- | --- | --- | --- | --- | --- |
| U31C G40A | 0.00072 ± 0.00018 | 1300 ± 550 | 6.18e-05 ± 1.5e-05 | 0.000297 ± 4.4e-05 | 0.000647 ± 0.00012 | 0.000532 ± 0.0001 | – |
| G29U U46G | 0.00127 ± 0.00012 | 2110 ± 340 | 9.52e-05 ± 2e-05 | 0.000259 ± 5e-05 | 0.000689 ± 0.00011 | 0.00106 ± 0.00013 | 3.07e-05 ± 9.8e-06 |
| G29U U46C | 0.000262 ± 1.5e-05 | 1090 ± 140 | 3.52e-05 ± 1.6e-05 | 9.83e-05 ± 1.4e-05 | 0.000156 ± 4.3e-05 | 0.000242 ± 2.9e-05 | – |
| U31A C50G U65C C67U | 0.000126 ± 2.3e-05 | – | 0.000177 ± 5e-05 | 0.000147 ± 4.9e-05 | 0.000191 ± 4.1e-05 | 0.000104 ± 1.9e-05 | 8.02e-05 ± 1.6e-05 |
| U31A C70G | 0.000226 ± 2.5e-05 | 570 ± 170 | 6.6e-05 ± 1.6e-05 | 0.000116 ± 1.3e-05 | 0.000169 ± 2.4e-05 | 0.000235 ± 3.2e-05 | – |
| U31A C70U | 0.0129 ± 0.0056 | – | 0.000843 ± 0.00019 | 0.00235 ± 0.00031 | 0.0115 ± 0.0032 | 0.0113 ± 0.0017 | 0.000386 ± 5.3e-05 |
| U30C C50U | < 1e-05 | – | – | – | – | – | – |
| U30C C50G | 0.000183 ± 3.9e-05 | – | 0.000338 ± 0.00011 | 0.000179 ± 4.8e-05 | 0.000149 ± 3.8e-05 | 0.000318 ± 9.9e-05 | 0.000126 ± 3.1e-05 |
| U30A G66U | 0.000236 ± 1.9e-05 | 1720 ± 340 | – | 5.93e-05 ± 7.9e-06 | 0.000159 ± 1.6e-05 | 0.000195 ± 1.5e-05 | – |
| U30A G66A | 0.0034 ± 0.00044 | 1870 ± 370 | 0.00021 ± 5.2e-05 | 0.000751 ± 0.00018 | 0.00197 ± 0.00024 | 0.0029 ± 0.00037 | 8.19e-05 ± 1e-05 |
| U31A U55G C67G | 0.000655 ± 6.8e-05 | 428 ± 100 | 0.000166 ± 5.4e-05 | 0.000467 ± 0.00012 | 0.000505 ± 9.5e-05 | 0.000735 ± 0.00019 | 5.68e-05 ± 1.9e-05 |
| U30A A48C | 9.77e-05 ± 4.8e-06 | – | – | – | – | 4.29e-05 ± 8.1e-06 | – |
| U30A U47C C70G | 4.3e-05 ± 6.7e-06 | – | – | – | 3.41e-05 ± 1.5e-05 | 3.72e-05 ± 1.7e-05 | – |
| U31A C67A C68U | 6.87e-05 ± 1.5e-05 | – | – | 0.000122 ± 3.5e-05 | 7.63e-05 ± 1.4e-05 | 5.53e-05 ± 1.3e-05 | – |
| U31C U45G | 0.000845 ± 0.00014 | 1870 ± 570 | 9.65e-05 ± 1.9e-05 | 0.000189 ± 2.7e-05 | 0.000505 ± 6.4e-05 | 0.000713 ± 9.2e-05 | – |
| U31C U65G | 0.0016 ± 0.00034 | 5250 ± 1700 | – | 0.000198 ± 2.5e-05 | 0.000465 ± 7.2e-05 | 0.00108 ± 0.00013 | – |

| Variant | kcat (glucosamine-6-phosphate [1]) [s⁻¹] | KM (glucosamine-6-phosphate [2]) [µM] | self-cleavage kobs at 160 uM GlcN6P (glucosamine-6-phosphate [3]) [s⁻¹] | self-cleavage kobs at 640 uM GlcN6P (glucosamine-6-phosphate [4]) [s⁻¹] | self-cleavage kobs at 2500 uM GlcN6P (glucosamine-6-phosphate [5]) [s⁻¹] | self-cleavage kobs at 10000 uM GlcN6P (glucosamine-6-phosphate [6]) [s⁻¹] | self-cleavage kobs at 40 uM GlcN6P (glucosamine-6-phosphate [7]) [s⁻¹] |
| --- | --- | --- | --- | --- | --- | --- | --- |
| U31C A52U U65A | < 1e-05 | – | – | – | – | – | – |
| U31C C50G | 6.62e-05 ± 2.8e-05 | – | 0.000114 ± 1.7e-05 | 0.000104 ± 2e-05 | 8.9e-05 ± 1.3e-05 | – | 2.9e-05 ± 1.3e-05 |
| U31A G40U | 0.00159 ± 0.00017 | 1080 ± 240 | – | 0.000444 ± 0.00018 | 0.00109 ± 0.00024 | 0.00148 ± 0.00022 | 6.29e-05 ± 1.4e-05 |
| U30A U57A | 6.66e-05 ± 1.8e-05 | – | – | 3.87e-05 ± 1.5e-05 | 3.73e-05 ± 1.2e-05 | 6.84e-05 ± 1.4e-05 | < 1e-05 |
| U30A U57G | 2.86e-05 ± 9.5e-06 | – | – | – | 3.99e-05 ± 1.7e-05 | – | – |
| U30G G38U | < 1e-05 | 87.6 ± 41 | – | – | – | – | – |
| U30A G40A | 0.0022 ± 0.0011 | – | 7.47e-05 ± 1.6e-05 | 0.000134 ± 5.6e-05 | 0.000927 ± 0.0002 | 0.0014 ± 0.00025 | 4.53e-05 ± 1.6e-05 |
| U30A G37C | < 1e-05 | – | < 1e-05 | < 1e-05 | – | – | < 1e-05 |
| U31C G59U C68A | 3.76e-05 ± 1.6e-05 | – | – | – | – | – | – |
| G29U C58U | 0.000107 ± 1.1e-05 | 3710 ± 980 | – | – | 4.57e-05 ± 9.1e-06 | 7.71e-05 ± 8.8e-06 | – |
| U30G C71A | 0.00126 ± 0.0004 | 1140 ± 560 | 0.000138 ± 2.2e-05 | 0.000344 ± 6.7e-05 | 0.00096 ± 0.00014 | 0.00119 ± 0.00018 | 7.85e-05 ± 1.2e-05 |
| U31A U47C | 0.0025 ± 0.0005 | 3290 ± 980 | 9.34e-05 ± 2.4e-05 | 0.000511 ± 0.00012 | 0.00117 ± 0.00017 | 0.00174 ± 0.00034 | 3.34e-05 ± 1.3e-05 |
| U31A U55C | 0.0168 ± 0.0039 | 3130 ± 990 | 0.000647 ± 0.00012 | 0.00293 ± 0.00082 | 0.00826 ± 0.0023 | 0.0127 ± 0.0018 | 0.000283 ± 4.3e-05 |
| U30A A36U | < 1e-05 | – | – | < 1e-05 | – | – | – |
| G29U G37U | < 1e-05 | – | – | – | – | < 1e-05 | – |
| U30A U55A C71U | 0.00347 ± 0.0015 | – | – | 0.00113 ± 0.00035 | 0.00197 ± 0.00068 | 0.00566 ± 0.0018 | 0.000138 ± 3.7e-05 |
